The values that follow come from patent publication US20240325499A1, “FGF21 COMPOUND / GLP-1R AGONIST COMBINATIONS WITH OPTIMIZED ACTIVITY RATIO” (SANOFI, priority 2018, published 2024).

The target in assay [1] is T1, human FGFR1c and KLB (Homo sapiens, UniProt P11362+Q86Z14).
T1 construct: host or cells: CHO Flp-In cells
The assay can be described thus: In-Cell Western FGF21 receptor autophosphorylation (pFGFR ICW) in CHO cells. It counts as cell-based. The following applies: CHO cells overexpressing human FGFR1c and KLB; 5 min stimulus; n = 59. Here is the method: (§1) The cellular in vitro efficacy of mature human FGF21 (SEQ ID NO: 2) or FGF21 variants was measured using a specific and highly sensitive In-Cell Western (ICW) assay. The ICW assay is an immunocytochemical assay usually performed in microplate format. CHO Flp-In cells (Invitrogen, Darmstadt, Germany) stably expressing the human FGFR1c (=FGF receptor 1c isoform) together with human beta-Klotho (KLB) were used for an FGF21 receptor autophosphorylation assay using In-Cell Western (Aguilar H. N. et al. (2010) PLoS ONE 5(4): e9965). In order to determine the receptor autophosphorylation level or downstream activation of the MAP kinase ERK1/2, 2×10^4 cells/well were seeded into 96-well plates and grown for 48 h. Cells were serum starved with serum-free medium Ham's F-12 Nutrient Mix with GlutaMAX (Gibco, Darmstadt, Germany) for 3-4 h. The cells were subsequently treated with increasing concentrations of either mature human FGF21 (SEQ ID NO: 2) for 5 min at 37° C. After incubation, the medium was discarded, and the cells were fixed in 3.7% freshly prepared para-formaldehyde for 20 min. […] Subsequently, cells were washed again with PBS plus 0.1% Tween20, and infrared dye signals were quantified with an Odyssey imager (LICOR, Bad Homburg, Germany). Results were normalized by quantification of DNA with TO-PRO3 dye (Invitrogen, Karlsruhe, Germany). […]

The target in assay [2] is T1, human FGFR1c and KLB. In words: In-Cell Western ERK1/2 phosphorylation (pERK ICW) in CHO cells. The class given is cell-based. As to conditions: CHO cells overexpressing human FGFR1c and KLB; 5 min stimulus; n = 61. The procedure:
as §1

B1: mature human wild-type FGF21, FGF21(His29-Ser209) (protein, listed as Homo sapiens)
chain: HPIPDSSPLLQFGGQVRQRYLYTDDAQQTEAHLEIREDGTVGGAADQSPESLLQLKALKPGVIQILGVKTSRFLCQRPDGALYGSLHFDPEACSFRELLLEDGYNVYQSEAHGLPLHLPGNKSPHRDPAPRGPARFLPLPGLPPAPPEPPGILAPQPPDVGSSDPLSMVGPSQGRSPSYAS
By EC50 is commonly meant the concentration needed to bring the measured effect to its halfway point. Lower therefore signals higher potency in that assay. Consider B1, for which the EC50 was found to be 4.8 ± 0.23 nM with human FGFR1c and KLB [1]; 0.18 ± 0.02 nM with human FGFR1c and KLB [2].
